Measurements reported in paper PMC2206118.

Experiments:
FIR1+2 Y115L = FIR1+2 Y115L (human, UniProt Q9UHX1-2 101-299, R106G;C112S;C238A;Y115L); assay: fluorescence anisotropy
FIR1+2 F157L = FIR1+2 F157L (human, UniProt Q9UHX1-2 101-299, R106G;C112S;C238A;F157L); assay: fluorescence anisotropy
FIR1+2 F254L = FIR1+2 F254L (human, UniProt Q9UHX1-2 101-299, R106G;C112S;C238A;F254L); assay: fluorescence anisotropy
FIR1+2 WT (FIR RRM1+2) [1] = biological target: T1, FIR1+2 WT (FIR RRM1+2) (human, UniProt Q9UHX1-2 101-299, R106G;C112S;C238A); assay: fluorescence anisotropy
FIR1+2 WT (FIR RRM1+2) [2] = biological target: T1, FIR1+2 WT (FIR RRM1+2); assay: X-ray crystallography

T1 sequence (Q9UHX1 118-316 R123G/C129S/C255A): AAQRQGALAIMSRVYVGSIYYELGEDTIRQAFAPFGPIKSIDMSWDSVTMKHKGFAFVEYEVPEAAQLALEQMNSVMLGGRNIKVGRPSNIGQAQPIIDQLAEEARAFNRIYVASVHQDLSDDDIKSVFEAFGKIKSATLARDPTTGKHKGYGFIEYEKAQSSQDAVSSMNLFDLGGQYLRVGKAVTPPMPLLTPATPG
FIR1+2 F157L, sequence (Q9UHX1 118-316 R123G/C129S/F174L/C255A): as the sequence (Q9UHX1 118-316 R123G/C129S/C255A) above, with F57L counted along it
FIR1+2 Y115L, sequence (Q9UHX1 118-316 R123G/C129S/Y132L/C255A): as the sequence (Q9UHX1 118-316 R123G/C129S/C255A) above, with Y15L counted along it
FIR1+2 F254L, sequence (Q9UHX1 118-316 R123G/C129S/C255A/F271L): as the sequence (Q9UHX1 118-316 R123G/C129S/C255A) above, with F154L counted along it

Row | Binder | Kd (FIR1+2 Y115L) | Kd (FIR1+2 F157L) | Kd (FIR1+2 F254L) | Kd (FIR1+2 WT (FIR RRM1+2) [1]) | binding result (FIR1+2 WT (FIR RRM1+2) [2])
1 | CCTCGGGATTTTTTATTTTGTGTTATT (ssDNA) [H27 (FUSE), fluorescein] | 81 ± 31 µM | 140 ± 85 µM | 0.17 ± 0.13 µM | 2.3 ± 1.8 µM | 
2 | TCGGGATTTTTTATTTTGTGTTATT (ssDNA) [H25 (FUSE)] |  |  |  |  | binds
